Assay results: patent publication US20150191516A1 (ONCOTHERAPY SCIENCE, published 2015)

Experiments:
HLA-DR8 (DRB1*08:03) = molecular target: T1, HLA-DR8 (DRB1*08:03) (human); assay: concluded from IFN-gamma ELISPOT with peptide-pulsed L cells expressing single HLA class II molecules and blocking mAbs; no direct binding assay
T1 construct: whole, on cells; MHC class II molecule on transfected L cells (L-DR8); also called L-DR8 (mouse L cells expressing it)
Procedure: (§1) The immune response of Th cells to APCs pulsed with peptides were assessed by IFN-gamma ELISPOT assays (Human IFN-gamma ELISPOT kit, BD Biosciences) as described previously (Tomita Y, et al. Cancer Sci; 102: 697-705.). Briefly, the frequency of peptide-specific CD4⁺ T cells producing IFN-gamma per 3×10⁴ bulk CD4⁺ T cells upon stimulation with peptide-pulsed PBMCs (3×10⁴ cells/well), or 1×10⁴ bulk CD4⁺ T cells upon stimulation with peptide-pulsed HLA-DR or DP-expressing L-cells (5×10⁴/well) was analyzed. To determine restriction HLA molecules involved in antigen presentation, blocking of antigen-induced IFN-gamma production was investigated by adding anti-HLA-DR mAb (L243, Biolegend), anti-HLA-DP mAb, (B7/21, abcam), anti-human HLA-DQ mAb (SPV-L3, abcam), or anti-HLA class I mAb, (W6/32, abcam). All mAbs were used at a final concentration of 5 micro-g/ml. Cells cultured with HIV-derived peptides were used as negative control. Cells cultured with PMA (100 ng/ml; Sigma-Aldrich) and ionomycin (500 ng/ml; Sigma-Aldrich) were used as positive controls. All assessments of IFN-gamma ELISPOT assays were carried out in duplicate or triplicate, and results corresponded to mean values.

HLA-DR15 (DRB1*15:02) = molecular target: T2, HLA-DR15 (DRB1*15:02) (human); assay: as above
T2 construct: whole, on cells; MHC class II molecule on transfected L cells (L-DR15); also called L-DR15 (mouse L cells expressing it)
Procedure: as §1

- binding result (HLA-DR8 (DRB1*08:03)): binds
- binding result (HLA-DR15 (DRB1*15:02)): binds
B1: LY6K (119-142) long peptide (peptide)
peptide: KWTEPYCVIAAVKIFPRFFMVAKQ
notes: Synthetic 24-mer, purity >90%
